B1: recombinant anti-UPK2 monoclonal antibody S3D10 (murine-human chimeric) (antibody, V domains shown)
VH: QVQLQQSGAELVRSGASVKLSCTDSGFNIKDYYMNWVKQRPEQGLEWIGWIDPENGVTQYDPKFQGKATVTADTFSNTAYLQLSSLTSEDTAVYYCNANYKYDWFGYWGQGTLVTVSA
VL: NIVMTQSPSSLSASLGERVSLTCRASQEISGYLSWLQQKPDGTIKRLIYAASTLDSGVPERFSGSRSGSDYSLTISSLESEDFADYYCLQYASYPWTFGGGTKLEMK
notes: Murine variable regions, human constant regions (vectors pTSEG1n, pTSEK), HEK293; also called UPK2-S3D10
B2: recombinant anti-UPK2 monoclonal antibody S7F11 (murine-human chimeric) (antibody, V domains shown)
VH: EVQLKESGAELVRSGASVKLSCTASAFNIKDYYMNWMKQRPEQGLEWIGWIDPENGDTKYAPKFQGKATITADTSSSTAYLQLTSLTSEDSAVFYCNVNYKYDWFAYWGQGTLVTVSA
VL: DVVMTQSQKFMSTSVGDRVSVTCKASQNVGTNVAWYQQKPGQSPRALIYSASYRYSGVPDRFTGSGSGTDFTLTISNVQSEDLAEYFCQQYNTYPWTFGGGTKLEIK
notes: the first set is used here; Murine variable regions, human constant regions; also called UPK2-S7F11
B3: recombinant anti-UPK2 monoclonal antibody S3A4 (murine-human chimeric) (antibody, V domains shown)
VH: EVKLKQSGAELVKPGASVKLSCKASGYTLTSYYIYWVKQRPGQGLEWIGGISPSNGNTYFTEKFKNMATLTVDKSSNTAYMQLSSLTSEDSAVYYCARNYDYDVGFAYWGQGTLVTVSS
VL: DVVMTQTPLSLPVSLGDQASISCRSSQSIVHSNGNTYLEWYLQKPGQSPKLLIYKVSNRFSGVPDRFSGSGSGTDFTLKISRVEAEDLGVYYCFQGSHVPFTFGSGTKLEIK
notes: Murine variable regions, human constant regions (vectors pTSEG1n, pTSEK), HEK293; also called UPK2-S3A4
B4: recombinant anti-UPK2 monoclonal antibody S2B7 (murine-human chimeric) (antibody, V domains shown)
VH: EVQLQQSGAELMKPGTSVKMSCKAAGYTFTKYWIGWVKQRPGHGLEWIGDIYPGGGYTLFNEKFKGKATLTADTSSSTAYMQLSSLTSEDSAIYYCARGNYWGQGTTLTVSS
VL: not shown
notes: Murine variable regions, human constant regions (vectors pTSEG1n, pTSEK); also called UPK2-S2B7
B5: scFv UPK2-S2B7 (phage display clone) (scFv)
scFv: EVQLQQSGAELMKPGTSVKMSCKAAGYTFTKYWIGWVKQRPGHGLEWIGDIYPGGGYTLFNEKFKGKATLTADTSSSTAYMQLSSLTSEDSAIYYCARGNYWGQGTTLTVSSGGGGSGGGGSGGGGSDVVMTQTPLTLSVTIGQPASISCKSSQSLLDSDGKTYLNWLLQRPGQSPKRLIYLVSKLDSGVPDRFTGSGSGTDFTLKISRVEAEDLGVYYCWQGTHFPHTFGGGTKLEMK
notes: also called clone S2B7
B6: recombinant anti-UPK2 monoclonal antibody S7F9 (murine-human chimeric) (antibody, V domains shown)
VH: QVQLKQSGPGLVRPGASVTMSCKASGYTFTSNWMHWVKQRPGQGLDWIGMIDPSNSDTRLNQKFKDKATLNVDKSSNTAYMQLSSLTSDDSAVYYCMRGGGDYWGQGTTLTVSS
VL: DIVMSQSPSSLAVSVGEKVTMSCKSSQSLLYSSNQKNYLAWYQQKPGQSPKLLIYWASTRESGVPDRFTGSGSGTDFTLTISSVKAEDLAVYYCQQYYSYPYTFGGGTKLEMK
notes: Murine variable regions, human constant regions (vectors pTSEG1n, pTSEK), HEK293; also called UPK2-S7F9
B7: recombinant anti-UPK2 monoclonal antibody S2E2 (murine-human chimeric) (antibody, V domains shown)
VH: QVKLQQSGPELVRPGASVKMSCKASGYTFTTYWMHWVKQRPGQGLEWIGMIDPSNSDTRLNQKFKDKATLNVDTSSNTAYMHLSSLTSEDSAVYYCTLGGTEYWGQGATLTVSS
VL: SIVMTQSPATLSVTPGDRVSLSCRASQSIGDYLHWFQQKSHESPRLLIKYASQSISGIPSRFSGSGSGSDFTLIINTMEPEDVGVYYCQNAHTYPYTFGGGTKLEIK
notes: Murine variable regions, human constant regions (vectors pTSEG1n, pTSEK), HEK293; also called UPK2-S2E2
B8: recombinant anti-UPK2 monoclonal antibody S3C10 (murine-human chimeric) (antibody, V domains shown)
VH: QVQLKESGGGLVQPGESLKLSCESSEFPFPSHDMSWVRKTPEKRLELVAAINSDGGSTYYPDTMERRFIISRDNTKKTLYLQMSSLRSEDTALYYCASLPTFAYWGQGTLVTVSA
VL: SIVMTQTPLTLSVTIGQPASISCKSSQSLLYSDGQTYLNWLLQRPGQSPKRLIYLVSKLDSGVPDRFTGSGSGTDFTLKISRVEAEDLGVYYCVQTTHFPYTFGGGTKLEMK
notes: Murine variable regions, human constant regions (vectors pTSEG1n, pTSEK), HEK293; also called UPK2-S3C10
B9: ACPP antibody S5F2 (human full antibody) (antibody, V domains shown)
VH: QVQLVQSGAEVKKPGSSVKVSCKASEDTFSSYVISWVRQAPGQGLEWMGAFIPLLGRVHYAQEFQGRLTITADESTGTAYMELKGLRSDDTAMYYCARDQGFAGDDAFDIWGQGTMVTVSS
VL: LPVLTQPPSASGTPGQRVTISCSGSSSNIGSNAVDWYQQLPGTAPKLLIYTNNRRPSGVPDRFSGSKSGTSGSLAISGLQFEDEADYYCAAWDDSLSGVIFGGGTKVTVL
notes: Human full antibody from vectors pTSEG1n and pTSEK, HEK293
B10: ACPP antibody S5D1 (human full antibody) (antibody, V domains shown)
VH: EVQLVQSGAEVKKPGESLKISCKGSGYTFTNYWIGWVRQMPGKGLEWMGRIYPSDSYTNYSPSFQGQVTISADKSISTAYLQWSSLKASDTAMYYCARDLEPTHHYSWGQGTLVTVSS
VL: QSVLTQPASVSGSPGQSVTISCTGTSSDVGGYNYVSWYQQHPGKPPKLMIYEVSKRPSGVPDRFSGSKSGNTASLTISGLQAEDEADYYCSSHTSSNTLIFGGGTKVTVL
notes: Variable regions cloned into vectors pTSEG1n (heavy) and pTSEK (light) and expressed in HEK293 as human full antibody; also called monoclonal antibody S5D1

How the values were obtained:
[1] = target: T1, recombinant UPK2 extracellular domain (UPK2-His) (Homo sapiens (Human), UniProt O00526 85-155); test: SPR, BIAcore X-100; antibody captured, UPK2-His as mobile phase; remark U-value = 15, fit poor, for reference only
T1 construct: Made in E. coli; not shown: His tag
T1 sequence: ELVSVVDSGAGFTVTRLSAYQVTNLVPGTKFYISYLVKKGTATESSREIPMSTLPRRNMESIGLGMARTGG
Method: (§1) The affinity of the eight monoclonal antibodies was analyzed using GE's BIAcore X-100. Affinity analysis was performed using a conventional procedure by first capturing the human monoclonal antibody with an anti-human antibody coated on a chip, and then using different concentrations of recombinant UPK2-His as the mobile phase for affinity analysis. […] Among them, the binding and dissociation of S7F11/S7G7 were slow, and the binding of S3D10 was too slow. When the three monoclonal antibodies were analyzed by BIAcore X-100 for affinity analysis, the automatic fitting of KD was poor, and the data was for reference only.

[2] = target: T1, recombinant UPK2 extracellular domain …; test: SPR, BIAcore X-100; antibody captured, UPK2-His as mobile phase; remark Kd overrun, fit poor, for reference only
Method: as §1

[3] = target: T1, recombinant UPK2 extracellular domain …; test: ELISA, antibody dilution series on UPK2-his coated at 0.5 ug/ml, OD490
Method: The ability of recombinant whole antibodies to bind antigen UPK2-His was analyzed using a classical ELISA method.

[4] = target: T1, recombinant UPK2 extracellular domain …; test: SPR, BIAcore X-100; antibody captured by anti-human antibody on chip, UPK2-His as mobile phase
Method: as §1

[5] = target: T1, recombinant UPK2 extracellular domain …; test: SPR, BIAcore X-100; antibody captured by anti-human antibody on chip, UPK2-His as mobile phase; exponent as printed, koff/kon gives 2.34e-8
Method: as §1

[6] = target: T1, recombinant UPK2 extracellular domain …; test: phage ELISA, purified scFv phage on UPK2-his coated at 0.5 ug/ml, OD490
[7] = target: T2, recombinantly expressed PAP (ACPP-His) (Homo sapiens (Human), UniProt P15309 33-379, limits assumed); test: SPR, BIAcore X-100; antibody captured by anti-human antibody on chip, recombinant PAP as mobile phase; speculated value, read as weaker than 100 nM because the next sentence says S5D1 has the higher affinity
T2 construct: ACPP gene cloned into PTSE-His, expressed in HEK293, purified on Histrap FF; also called serum prostatic acid phosphatase; ACPP antigen; not shown: His tag from vector PTSE-His
T2 sequence: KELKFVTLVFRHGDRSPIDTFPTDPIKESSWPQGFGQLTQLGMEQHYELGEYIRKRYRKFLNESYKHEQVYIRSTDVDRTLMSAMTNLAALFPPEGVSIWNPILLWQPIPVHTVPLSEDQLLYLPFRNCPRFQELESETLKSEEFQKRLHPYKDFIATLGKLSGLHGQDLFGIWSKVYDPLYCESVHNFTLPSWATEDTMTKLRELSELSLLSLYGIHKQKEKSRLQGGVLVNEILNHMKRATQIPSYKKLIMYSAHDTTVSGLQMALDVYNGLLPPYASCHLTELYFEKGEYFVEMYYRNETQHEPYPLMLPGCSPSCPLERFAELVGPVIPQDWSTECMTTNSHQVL
Method: (§2) For the affinity assay in FIG. 10, the affinity of two monoclonal antibodies, S5D1 and S5F2, was analyzed using GE's BIAcore X-100 Biomolecular Interaction Analyzer. Affinity analysis was performed using a conventional procedure. The human monoclonal antibody S5D1 or S5F2 was captured using an anti-human antibody coated on a chip. Affinity analysis was then performed using different concentrations of recombinantly expressed PAP as the mobile phase. […] S5D1 has a higher affinity for ACPP antigen.

[8] = target: T2, recombinantly expressed PAP (ACPP-His); test: BIAcore X-100, antibody captured by anti-human antibody on the chip, recombinant PAP as the mobile phase
Method: as §2

[9] = target: T2, recombinantly expressed PAP (ACPP-His); test: SPR, BIAcore X-100; antibody captured by anti-human antibody on chip, recombinant PAP as mobile phase
Method: as §2

Binder	EC50 (read off the curve) [3]	Kd [4]	further results
B1	–	–	Kd [1]: 4060 nM
B2	–	–	Kd [2]: 2.32 nM
B3	~0.6 nM	27.1 nM	–
B4	~0.5 nM	–	Kd [5]: 23.4 nM
B5	–	–	EC50 (read off the curve) [6]: ~3e+10 cfu/ml
B6	~0.5 nM	16.7 nM	–
B7	~0.5 nM	2.82 nM	–
B8	~0.5 nM	0.911 nM	–
B9	–	–	Kd [7]: > 100 nM
B10	–	–	Kd [8]: 9.02 nM; Kd [9]: ~9 nM

— patent US20250171560A1 (INNOVATIVE CELLULAR THERAPEUTICS, published 2025)
